Substrate: CCn1c(=NN=c2sc3cc(S(=O)(=O)O)ccc3n2CC)sc2cc(S(=O)(=O)O)ccc21
Assay: purified protein
Format: biochemical, Trametes sanguinea
Details: 100 mM sodium succinate pH 4, room temperature (routine assay conditions)

B1: Recombinant Lcc (TaLcc3 laccase) (Trametes sanguinea) (protein)
chain: AIGPKADLVISDAVVNPDGTPRDAVVVNGAFPGPLISGKKGDHFQLNVINKLTNHTMLKTTSIHWHGLFQEHTNWADGPAFVNQCPIASGHSFLYDFHVPDQAGTYWYHSHLSTQYCDGLRGPLVVYDPHDPQAHLYDVDNDDTVITLADWYHVAAKVGPQFPRGADSTLINGRGRAASDSTAELTVITVEHGKRYRFRLVSISCDPNHTFSIDGHNMTIIEVEGVNSKPLTVDSIQIFAAQRYSFMLNANQPVDNYWIRANPSGGTVGFEGGINSAILRYKGAPDAEPTNTTAPTSVIPLVETNLHPLKPMQVPGRSGIGNVDYAKTLNFNFNGTNFFINNATFTPPTVPVLLQILSGAHSAQDLLPPGSVYTLPPHSAIEITMPATTMAPGSPHPFHLHGHVFAVVRSAGSTEYNYHDPIFRDVVSTGQPGDSVTIRFMTDNPGPWFLHCHIDFHLEAGFAIVFAEDVNEIKYANPVPPSWAELCPIYDKLPESDH
notes: full cDNA with native signal peptide (predicted cleaved between residues 20 and 21), no tag mentioned; secreted by Trichoderma atroviride IMI206040 strain Talcc3; purified; ORF 1557 bp, 519 amino acids
Km: 48.10 ± 4.9 µM | kcat: 69.7 ± 3.47 s⁻¹ | kcat/Km: 1.44e+06 M⁻¹ s⁻¹

From PMC4743974, “Xenobiotic Compounds Degradation by Heterologous Expression of a Trametes sanguineus Laccase in Trichoderma atroviride” (PLoS ONE, 2016)
